Measurements taken from article PMC12391199.

Key:
[1] = molecular target: portal protein gp4 of bacteriophage Epsilon15 (portal complex) (bacteriophage Epsilon15); experiment: cryo-EM structure; asymmetric single-particle reconstruction of whole ϵ15 virions (iodixanol-purified, in PBS, graphene oxide-coated grids, Titan Krios 300 kV, RELION 2.0), with focused refinement of the portal at ~7 Å
[2] = molecular target: tail hub of bacteriophage Epsilon15 (bacteriophage Epsilon15); experiment: as above

| Substance | stoichiometry N [1] | stoichiometry N [2] |
| --- | --- | --- |
| portal protein gp4 of bacteriophage Epsilon15 (portal complex) (natural protein) | 12 | – |
| tail hub of bacteriophage Epsilon15 (complex) | – | 6 |
